Source: US10253076B2, “Peptides and combination of peptides for use in immunotherapy against ovarian cancer and other cancers” (immatics biotechnologies GmbH, priority 2015, dated 2019)

Target: HLA-A*02:01 (Homo sapiens, UniProt P04439, D140Y/D185E/D98H/E176V/E277Q/G131W/G231S/I119V/I121R/I166T/I218V/L300P/L318F/N151K/N90K/P208A/P217A/Q86G/Q94H/R138H/R169H/T345S)
Test: MHC binding assay (UV-ligand exchange, beta2m ELISA, peptide exchange yield)
Conditions: binding of HLA-class I restricted peptides to HLA-A*02:01, ranged by peptide exchange yield (UV-ligand exchange, β2m ELISA)
Method in brief: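 Peptide–HLA-A*02:01 complexes made by UV-mediated exchange of a photocleavable peptide with the test peptide. Exchange products diluted 100-fold on streptavidin-coated plates, 1 h at 37°C, then HRP anti-β2m 1 h at 37°C; TMB read at 450 nm to give exchange yield.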

Row | Peptide exchange | Substance
1 | ″+++″ (≥50% = +++) | 101 (ILVGGGALATV; listed as Homo sapiens) [compound 101]
2 | ″+++″ (≥50% = +++) | 439 (YLLQEIYGI; listed as Homo sapiens) [compound 439]
3 | ″++″ (≥20% = ++) | 81 (FLFSQLQYL; listed as Homo sapiens) [compound 81]
4 | ″+++″ (≥50% = +++) | 103 (TLAEEVVAL; listed as Homo sapiens) [compound 103]
5 | ″+++″ (≥50% = +++) | 592 (RLLSAAENFL; listed as Homo sapiens) [compound 592]
6 | ″+++″ (≥50% = +++) | 236 (GLLEAKVSL; listed as Homo sapiens) [compound 236]
7 | ″+++″ (≥50% = +++) | 619 (ALQDRVPLA; listed as Homo sapiens) [compound 619]
8 | ″++″ (≥20% = ++) | 242 (AIAYILQGV; listed as Homo sapiens) [compound 242]
9 | ″+++″ (≥50% = +++) | 276 (ALFTFSPLTV; listed as Homo sapiens) [compound 276]
10 | ″+++″ (≥50% = +++) | 312 (IISDLTIAL; listed as Homo sapiens) [compound 312]
11 | ″+++″ (≥50% = +++) | 249 (LLDGFLVNV; listed as Homo sapiens) [compound 249]
12 | ″++″ (≥20% = ++) | 185 (FLIDDKGYTL; listed as Homo sapiens) [compound 185]
13 | ″++″ (≥20% = ++) | 186 (TLFFQQNAL; listed as Homo sapiens) [compound 186]
14 | ″+++″ (≥50% = +++) | 501 (LLDPNVKSIFV; listed as Homo sapiens) [compound 501]
15 | ″+++″ (≥50% = +++) | 88 (FLLVGDLMAV; listed as Homo sapiens) [compound 88]
16 | ″+++″ (≥50% = +++) | 206 (VLQEGKLQKLAQL; listed as Homo sapiens) [compound 206]
17 | ″+++″ (≥50% = +++) | 219 (KLSDIGITV; listed as Homo sapiens) [compound 219]
18 | ″+++″ (≥50% = +++) | 298 (VMITKLVEV; listed as Homo sapiens) [compound 298]
19 | ″+++″ (≥50% = +++) | 256 (FLPPEHTIVYI; listed as Homo sapiens) [compound 256]
20 | ″++++″ (≥75% = ++++) | 358 (ALDEYTSEL; listed as Homo sapiens) [compound 358]
21 | ″+++″ (≥50% = +++) | 343 (SLLEVNEESTV; listed as Homo sapiens) [compound 343]
22 | ″++″ (≥20% = ++) | 382 (ALQNYIKEA; listed as Homo sapiens) [compound 382]
23 | ″+++″ (≥50% = +++) | 110 (FLSQVDFEL; listed as Homo sapiens) [compound 110]
24 | ″+++″ (≥50% = +++) | 285 (QLLHVGVTV; listed as Homo sapiens) [compound 285]
25 | ″++++″ (≥75% = ++++) | 196 (YLYSVEIKL; listed as Homo sapiens) [compound 196]
26 | ″++++″ (≥75% = ++++) | 602 (YLLEQIKLIEV; listed as Homo sapiens) [compound 602]

Row | Peptide exchange | Substance
27 | ″+++″ (≥50% = +++) | 554 (LLMPSSEDLLL; listed as Homo sapiens) [compound 554]
28 | ″++″ (≥20% = ++) | 510 (KLYSVVSQL; listed as Homo sapiens) [compound 510]
29 | ″+++″ (≥50% = +++) | 477 (ALLPASGQIAL; listed as Homo sapiens) [compound 477]
30 | ″+++″ (≥50% = +++) | 480 (ALLEDSCHYL; listed as Homo sapiens) [compound 480]
31 | ″++++″ (≥75% = ++++) | 339 (GLWEIENNPTVKA; listed as Homo sapiens) [compound 339]
32 | ″+++″ (≥50% = +++) | 370 (SLLQDLVSV; listed as Homo sapiens) [compound 370]
33 | ″+++″ (≥50% = +++) | 427 (ALLPLSPYL; listed as Homo sapiens) [compound 427]
34 | ″+++″ (≥50% = +++) | 134 (YLQELIFSV; listed as Homo sapiens) [compound 134]
35 | ″+++″ (≥50% = +++) | 57 (TLAELQPPVQL; listed as Homo sapiens) [compound 57]
36 | ″+++″ (≥50% = +++) | 147 (SLLEAVSFL; listed as Homo sapiens) [compound 147]
37 | ″+++″ (≥50% = +++) | 187 (RQISIRGIVGV; listed as Homo sapiens) [compound 187]
38 | ″+++″ (≥50% = +++) | 328 (ALNDQVFEI; listed as Homo sapiens) [compound 328]
39 | ″+++″ (≥50% = +++) | 138 (YQYPRAILSV; listed as Homo sapiens) [compound 138]
40 | ″+++″ (≥50% = +++) | 346 (LLDSKVPSV; listed as Homo sapiens) [compound 346]
41 | ″++++″ (≥75% = ++++) | 51 (LLPDLEFYV; listed as Homo sapiens) [compound 51]
42 | ″+++″ (≥50% = +++) | 609 (ALWKQLLEL; listed as Homo sapiens) [compound 609]
43 | ″++″ (≥20% = ++) | 99 (ALVSKGLATV; listed as Homo sapiens) [compound 99]
44 | ″+++″ (≥50% = +++) | 311 (RLYTGMHTV; listed as Homo sapiens) [compound 311]
45 | ″+++″ (≥50% = +++) | 202 (ALLDQQGSRWTL; listed as Homo sapiens) [compound 202]
46 | ″+++″ (≥50% = +++) | 193 (QLLDADGFLNV; listed as Homo sapiens) [compound 193]
47 | ″++++″ (≥75% = ++++) | 527 (FLLEPGNLEV; listed as Homo sapiens) [compound 527]
48 | ″+++″ (≥50% = +++) | 573 (ILVANAIVGV; listed as Homo sapiens) [compound 573]
49 | ″+++″ (≥50% = +++) | 391 (YVYPQRLNFV; listed as Homo sapiens) [compound 391]
50 | ″+++″ (≥50% = +++) | 342 (HIYDKVMTV; listed as Homo sapiens) [compound 342]
51 | ″+++″ (≥50% = +++) | 190 (FLSSLTETI; listed as Homo sapiens) [compound 190]
52 | ″+++″ (≥50% = +++) | 248 (FLFPNQYVDV; listed as Homo sapiens) [compound 248]

Row | Peptide exchange | Substance
53 | ″+++″ (≥50% = +++) | 386 (ILFRYPLTI; listed as Homo sapiens) [compound 386]
54 | ″+++″ (≥50% = +++) | 246 (LLWEVVSQL; listed as Homo sapiens) [compound 246]
55 | ″+++″ (≥50% = +++) | 436 (HLAEVSAEV; listed as Homo sapiens) [compound 436]
56 | ″+++″ (≥50% = +++) | 544 (LLWDVPAPSL; listed as Homo sapiens) [compound 544]
57 | ″+++″ (≥50% = +++) | 120 (ALLGIPLTLV; listed as Homo sapiens) [compound 120]
58 | ″+++″ (≥50% = +++) | 262 (LLWGDLIWL; listed as Homo sapiens) [compound 262]
59 | ″+++″ (≥50% = +++) | 508 (ILAQEQLVVGV; listed as Homo sapiens) [compound 508]
60 | ″++″ (≥20% = ++) | 228 (AMQEYIAVV; listed as Homo sapiens) [compound 228]
61 | ″+++″ (≥50% = +++) | 623 (YLVEDIQHI; listed as Homo sapiens) [compound 623]
62 | ″+++″ (≥50% = +++) | 545 (LLADLLHNV; listed as Homo sapiens) [compound 545]
63 | ″++++″ (≥75% = ++++) | 552 (GLLDLPFRVGV; listed as Homo sapiens) [compound 552]
64 | ″+++″ (≥50% = +++) | 473 (AMATESILHFA; listed as Homo sapiens) [compound 473]
65 | ″+++″ (≥50% = +++) | 512 (SLSEIVPCL; listed as Homo sapiens) [compound 512]
66 | ″++″ (≥20% = ++) | 494 (ALQPEPIKV; listed as Homo sapiens) [compound 494]
67 | ″+++″ (≥50% = +++) | 142 (FLFATPVFI; listed as Homo sapiens) [compound 142]
68 | ″+++″ (≥50% = +++) | 34 (ILVEADSLWVV; listed as Homo sapiens) [compound 34]
69 | ″+++″ (≥50% = +++) | 336 (ILLTAIVQV; listed as Homo sapiens) [compound 336]
70 | ″+++″ (≥50% = +++) | 383 (ALLELENSVTL; listed as Homo sapiens) [compound 383]
71 | ″+++″ (≥50% = +++) | 464 (ALNDCIYSV; listed as Homo sapiens) [compound 464]
72 | ″+++″ (≥50% = +++) | 70 (GLLDYPVGV; listed as Homo sapiens) [compound 70]
73 | ″+++″ (≥50% = +++) | 469 (YLASDEITTV; listed as Homo sapiens) [compound 469]
74 | ″++″ (≥20% = ++) | 522 (TLWYRSPEV; listed as Homo sapiens) [compound 522]
75 | ″++″ (≥20% = ++) | 64 (YAAPGGLIGV; listed as Homo sapiens) [compound 64]
76 | ″+++″ (≥50% = +++) | 362 (TLYGLSVLL; listed as Homo sapiens) [compound 362]
77 | ″+++″ (≥50% = +++) | 539 (ALFDAQAQV; listed as Homo sapiens) [compound 539]
